The experiment concerns the target T1, DNA polymerase V (UmuD′2C) (E. coli, UniProt P04152 1-422; P0AG11 25-139).
T1 chain 1: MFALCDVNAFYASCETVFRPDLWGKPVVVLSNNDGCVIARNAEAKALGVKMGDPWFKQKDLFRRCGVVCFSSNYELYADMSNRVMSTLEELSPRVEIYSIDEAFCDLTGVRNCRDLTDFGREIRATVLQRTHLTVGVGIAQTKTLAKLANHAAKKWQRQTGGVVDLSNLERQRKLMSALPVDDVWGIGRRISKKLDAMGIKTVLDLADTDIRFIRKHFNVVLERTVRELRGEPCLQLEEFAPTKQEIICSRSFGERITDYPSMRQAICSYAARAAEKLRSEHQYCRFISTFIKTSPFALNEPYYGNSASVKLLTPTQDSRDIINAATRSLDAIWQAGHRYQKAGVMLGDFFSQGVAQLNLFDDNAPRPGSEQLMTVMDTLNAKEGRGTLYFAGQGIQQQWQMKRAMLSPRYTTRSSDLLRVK
T1 chain 2: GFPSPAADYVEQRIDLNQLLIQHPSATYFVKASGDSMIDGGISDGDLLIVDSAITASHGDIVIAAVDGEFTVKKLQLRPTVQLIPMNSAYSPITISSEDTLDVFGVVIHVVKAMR
The experiment in a line: FP; apparent Kd.

B1: wild-type E. coli RecA protein, fluorescein-labelled (natural protein)
chain: MAIDENKQKALAAALGQIEKQFGKGSIMRLGEDRSMDVETISTGSLSLDIALGAGGLPMGRIVEIYGPESSGKTTLTLQVIAAAQREGKTCAFIDAEHALDPIYARKLGVDIDNLLCSQPDTGEQALEICDALARSGAVDVIVVDSVAALTPKAEIEGEIGDSHMGLAARMMSQAMRKLAGNLKQSNTLLIFINQIRMKIGVMFGNPETTTGGNALKFYASVRLDIRRIGAVKEGENVVGSETRVKVVKNKIAAPFKQAEFQILYGEGINFYGELVDLGVKEKLIEKAGAWYSYKGEKIGQGKANATAWLKDNPETAKEIEKKVRELLLSNPNSTPDFSVDDSEGVAETNEDF
modifications: fluorescein (Fluorescein-EX Protein Labeling Kit); labelled residues not stated
For B1, the Kd was determined as 239 nM.

B2: RecA D112R, fluorescein-labelled (natural protein)
chain: AIDENKQKALAAALGQIEKQFGKGSIMRLGEDRSMDVETISTGSLSLDIALGAGGLPMGRIVEIYGPESSGKTTLTLQVIAAAQREGKTCAFIDAEHALDPIYARKLGVDIRNLLCSQPDTGEQALEICDALARSGAVDVIVVDSVAALTPKAEIEGEIGDSHMGLAARMMSQAMRKLAGNLKQSNTLLIFINQIRMKIGVMFGNPETTTGGNALKFYASVRLDIRRIGAVKEGENVVGSETRVKVVKNKIAAPFKQAEFQILYGEGINFYGELVDLGVKEKLIEKAGAWYSYKGEKIGQGKANATAWLKDNPETAKEIEKKVRELLLSNPNSTPDFSVDDSEGVAETNEDF
modifications: fluorescein (Fluorescein-EX Protein Labeling Kit); labelled residues not stated
Take B2: the Kd turned out to be 297 nM.
